The chains are these.
B1: Hammerhead Ribozyme (parent)
chain: ACCGGAUGUGCUUUCCGGUCUGAUGAGUCCGUGAGGACGAAACAG

This data set covers variants of B1. The experiment in a line: self-cleavage, relative activity (ratio to wild type); higher = more cleavage; co-transcriptional.
In the case of U32A A44C, the self-cleavage was 0.581.
Turning to A26U U28G, the self-cleavage worked out at 0.437.
Consider U13C A42C, for which the self-cleavage came to 0.313.
Turning to C3G A26G, the self-cleavage turned out to be 0.296.
The value for G18U G45C was 0.476; that for A1C U21C was 0.293; that for U13G A37U was 0.625.
G8C G33C: the self-cleavage amounted to 0.867.
The value for G31U C43G was 0.472.
As to G25U A41U, the self-cleavage was determined as 0.337.
As for U9C U14A, the self-cleavage was 0.872.
Turning to A23G A26C, the self-cleavage turned out to be 0.263.
Turning to A6C G39C, the self-cleavage amounted to 0.368.
With U21A A26U the figure was 0.356; with C3G U32G, 0.36.
The value for G10U G35U was 0.844.
For the variant G10U A41U, the self-cleavage worked out at 0.358.
For G8U A44G, the self-cleavage is 1.37.
The value for C30U G39A was 0.278; that for G22A U28A was 0.326; that for A1G G45U was 1.13.
In the case of C2U G33C, the self-cleavage amounted to 1.06.
On to U19A G35C, for which the self-cleavage is 0.422.
The value for U9A C30G was 0.774; that for U9C A34C was 0.94; that for C11G G33U was 1.53.
Turning to G8U A23G, the self-cleavage was found to be 0.363.
Take G31U A34C: the self-cleavage worked out at 0.84.
G8A G22U: the self-cleavage is 0.384.
On to A1C G4C, for which the self-cleavage turned out to be 0.472.
With C30A G31U, the self-cleavage worked out at 1.07.
Regarding A6C U32C, the self-cleavage worked out at 0.838.
With U9A G10U, the self-cleavage is 1.07.
For the variant U9C, the self-cleavage is 1.02.
With U21A U24A the figure was 0.652.
Regarding G5A G39U, the self-cleavage was 0.329.
With C30G A34U, the self-cleavage amounted to 0.888.
As to A26C C43A, the self-cleavage amounted to 0.349.
For the variant U13G G31A, the self-cleavage stood at 1.1.
With C3G U19A, the self-cleavage came out at 0.265.
As for U19G G45C, the self-cleavage amounted to 0.312.
In the case of C2G G5U, the self-cleavage turned out to be 0.296.
For the variant C15A G22A, the self-cleavage amounted to 0.34.
U13A U14C: the self-cleavage came to 0.548.
With G17U G18A the figure was 0.419; with C15A U24C, 0.892.
For A1G U19G, the self-cleavage was 0.61.
Consider G25U A37U, for which the self-cleavage came to 0.302.
Turning to U21G C29A, the self-cleavage came to 0.3.
Consider U12A U13A, for which the self-cleavage stood at 1.23.
As for G18C G27U, the self-cleavage was 0.298.
Take G8C C38G: the self-cleavage is 0.596.
With U12A U21C, the self-cleavage was 0.517.
C29U A42U: the self-cleavage came to 0.367.
With U32C A44C, the self-cleavage was determined as 0.678.
For the variant C20A G25A, the self-cleavage turned out to be 0.309.
Turning to G18A A23U, the self-cleavage turned out to be 0.345.
As for U9C U21C, the self-cleavage is 0.718.
On to A34C G36A, for which the self-cleavage came out at 0.345.
With U24G G27U, the self-cleavage turned out to be 0.438.
In the case of C15U C16A, the self-cleavage turned out to be 0.76.
Consider C29G G35C, for which the self-cleavage was 0.602.
For C43A A44G, the self-cleavage was 0.304.
As for C15A U21G, the self-cleavage was 0.404.
For G5C U32C, the self-cleavage worked out at 0.559.
With U9C C38A, the self-cleavage stood at 0.618.
With A6C G31U the figure was 0.884.
The value for U7G G18C was 0.464; that for G33U G45U was 0.912.
For the variant C20G A41G, the self-cleavage stood at 0.332.
G27C G39C: the self-cleavage was found to be 0.261.
The value for G4U U9C was 0.413; that for G8U G10C was 1.07; that for G5U U14G was 1.29.
The value for G22A C43A was 0.411; that for A6U U7C was 0.356; that for U24C U28G was 0.99.
G39U G45A: the self-cleavage turned out to be 0.351.
In the case of A40C C43U, the self-cleavage is 0.347.
For the variant G4C A34C, the self-cleavage came to 0.679.
Regarding U9G C29U, the self-cleavage came to 0.713.
Consider A1G C11A, for which the self-cleavage is 2.06.
The value for A34U A40C was 0.404; that for C30U G31U was 1.01.
Consider G18C C29G, for which the self-cleavage is 0.302.
Turning to G33C A44G, the self-cleavage turned out to be 1.13.
For U24A A41U, the self-cleavage was 0.279.
Consider C3U C20A, for which the self-cleavage was 0.465.
On to U7C U28G, for which the self-cleavage came out at 0.538.
As to A1G A37C, the self-cleavage amounted to 1.64.
With C38U A44G the figure was 1.44.
As to U7G C20U, the self-cleavage was 0.447.
For the variant A26G A40U, the self-cleavage is 0.412.
With C11A U14C the figure was 1.17.
Take A1G G39C: the self-cleavage was determined as 0.394.
With U14C G33C the figure was 0.851; with C16G C30G, 0.473.
With C20G G22U the figure was 0.343; with G10C C43G, 0.381.
On to C15G C20U, for which the self-cleavage stood at 0.453.
With U9A C16U the figure was 1.11.
Regarding C2U U14A, the self-cleavage is 0.8.
As to C16G A37G, the self-cleavage was 0.533.
On to C29G G45A, for which the self-cleavage was 0.359.
With G17U A23G, the self-cleavage turned out to be 0.382.
G8C G10U: the self-cleavage is 1.25.
Regarding G17C G36U, the self-cleavage was 0.392.
Consider U7G C29A, for which the self-cleavage is 0.642.
Take C3A C11A: the self-cleavage was 0.754.
Consider U19A A42G, for which the self-cleavage was 0.34.
As to C11U A34C, the self-cleavage stood at 0.584.
Turning to C11U A34G, the self-cleavage came to 0.83.
With U12A G27A the figure was 0.77; with C3U C38U, 0.999.
Regarding U12A U24A, the self-cleavage is 0.937.
Regarding C16U A42G, the self-cleavage came out at 0.232.
Regarding C11G U14A, the self-cleavage amounted to 1.25.
As for G5A G25C, the self-cleavage was determined as 0.268.
For the variant C3A U24A, the self-cleavage is 0.811.
Consider G8C A41C, for which the self-cleavage was found to be 0.312.
With U7A A34U the figure was 1.22; with C16U A23C, 0.474.
Take A1C U14A: the self-cleavage worked out at 0.348.
Regarding A26C A42U, the self-cleavage came out at 0.393.
With C30U G33A the figure was 1.02.
The value for A6G A44U was 0.483; that for G10C U28G was 0.38; that for G5A C16G was 0.931.
For the variant A1C U13A, the self-cleavage stood at 0.557.
For U9G A44G, the self-cleavage is 1.07.
For U13A G17C, the self-cleavage stood at 0.815.
For the variant G31A G45C, the self-cleavage amounted to 0.945.
Consider U13G G25U, for which the self-cleavage came to 0.303.
G8A A37G: the self-cleavage was found to be 0.966.
For G31U G45U, the self-cleavage amounted to 0.933.
The value for A34U was 0.926; that for U7C U12G was 1.43.
With U19C A37U, the self-cleavage amounted to 0.437.
The value for G5U A26G was 0.332.
As for G5A G18U, the self-cleavage was 0.371.
The value for A1G U7C was 1.39; that for U24A C43G was 0.374; that for A26U A44C was 0.477.
Take C3U U19A: the self-cleavage came out at 0.385.
With C38U G45C the figure was 0.529.
With G5C G18A the figure was 0.293; with G5C G18U, 0.307.
Consider C29G A44G, for which the self-cleavage was found to be 0.82.
With G8C C16A the figure was 0.446; with G18U G35C, 0.515.
Consider G4C G33C, for which the self-cleavage was 0.742.
Regarding A6G C29A, the self-cleavage worked out at 0.36.
For the variant A6G C29G, the self-cleavage worked out at 0.498.
For U7G A41U, the self-cleavage was 0.342.
Consider A1C G31A, for which the self-cleavage worked out at 0.454.
As to C15A G39C, the self-cleavage stood at 0.366.
As to G4C G18A, the self-cleavage was 0.303.
U28C G31A: the self-cleavage is 1.03.
As to U12C G25U, the self-cleavage turned out to be 0.277.
G18A U21C: the self-cleavage is 0.396.
As to G17C C43G, the self-cleavage was 0.311.
Consider U9G A42G, for which the self-cleavage was 0.323.
With A1C A37C the figure was 0.404.
In the case of G5C C11G, the self-cleavage amounted to 0.873.
As to U12G A26U, the self-cleavage was 0.708.
As to U12G A26C, the self-cleavage was found to be 0.475.
The value for C3A C43A was 0.28.

(Values after the RNAGym collection of RNA variant scans (doi:10.7554/elife.80360).)
